PMC6656774, “Functional importance of the oligomer formation of the cyanobacterial H^+ pump Gloeobacter rhodopsin” (Scientific Reports, 2019)
Where two headings read alike, the source gives them in different places.

Legend:
Asp121 [1] = target: T1, Asp121 (UniProt position 121, AYRYVDWLLTV); assay: UV-vis; conditions: room temperature; 0.3 M NaCl; 6-mix buffer (1.37 mM citric acid, 0.46 mM ADA, 1.04 mM MOPS, 1.25 mM TAPS, 0.81 mM CHES, 1.39 mM CAPS); pH adjusted with HCl or NaOH; unphotolyzed (dark) state, retinal-bound, in nanodisc
Asp121 [2] = target: T1, Asp121; conditions: DDM-solubilized, monomeric; cited from earlier work
Asp97 = Asp97 (UniProt position 97, VFRYIDWLLTV); conditions: monomeric proteorhodopsin; cited from earlier work
[3] = target: the molecule itself; assay: sucrose density gradient centrifugation + absorption spectra (MSP amount per GR from A280); higher-density nanodisc band NDH, reconstituted at pH 5.5, separated on a 10-40% sucrose gradient; spectra in 6-mix buffer, pH 7, 0.3 M NaCl, set to the same peak at about 540 nm

## Gloeobacter rhodopsin (GR), wild type, monomer in nanodisc (NDL) (Gloeobacter violaceus)
Asp121 [1]
  pKa: 7.41

## Gloeobacter rhodopsin (GR), wild type, trimer in nanodisc (NDH) (Gloeobacter violaceus)
Asp121 [1]
  pKa: 4.52

## Gloeobacter rhodopsin H87M, DDM-solubilized (Gloeobacter violaceus; H87M)
Asp121 [2]
  pKa: approximately 4

## Gloeobacter rhodopsin H87M, monomer in nanodisc (Gloeobacter violaceus; H87M)
Asp121 [1]
  pKa: approximately 3.72

## Proteorhodopsin (PR), monomeric (uncultured marine gamma-proteobacterium (the article says only that the gene came from a DNA fragment of gamma-proteobacteria))
Asp97
  pKa: 7.5–7.7

B1: Gloeobacter rhodopsin (GR), wild type, C-terminal His-tagged (natural protein, Gloeobacter violaceus, UniProt Q7NP59 1-298, looked up)
chain: MLMTVFSSAPELALLGSTFAQVDPSNLSVSDSLTYGQFNLVYNAFSFAIAAMFASALFFFSAQALVGQRYRLALLVSAIVVSIAGYHYFRIFNSWDAAYVLENGVYSLTSEKFNDAYRYVDWLLTVPLLLVETVAVLTLPAKEARPLLIKLTVASVLMIATGYPGEISDDITTRIIWGTVSTIPFAYILYVLWVELSRSLVRQPAAVQTLVRNMRWLLLLSWGVYPIAYLLPMLGVSGTSAAVGVQVGYTIADVLAKPVFGLLVFAIALVKTKADQESSEPHAAIGAAANKSGGSLIS
modifications: retinal bound by a protonated Schiff base linkage (residue not given)
notes: Gloeobacter rhodopsin, H+ pump from the cyanobacterium Gloeobacter violaceus; The same protein was trapped as a trimer (nanodisc band NDH) and as a monomer (nanodisc band NDL) after reconstitution at pH 5.5; also called wild-type GR; trimeric GR (in NDH); source: E. coli BL21(DE3), solubilized with DDM, purified (Ni-NTA agarose); reconstituted into MSP1E3D1/POPC nanodiscs or kept in DDM
[3]
  MSP amount per GR, NDL against NDH: 3.3 fold
  stoichiometry N: 3
